# Experimental data: patent publication US11680267B2, “Co-regulatory sequences based on tetracycline and Cumate” (Shenzhen Eureka Biotechnology Co., Ltd., priority 2020, dated 2023)
# System: 293T-rtTA3G-CymR cells
# Experiment: Luciferase assay, transient transfection, DOX and Cumate vs no inducer (Example 3), rtTA3G cells
# Type: cell-based
# Protocol: 293T cells were seeded at 1.5E+06 cells per 60 mm culture dish, and cultured in DMEM (Sigam, D6429) complete medium supplemented with 10% FBS (ExCell, 11H116) at 37° C. and 5% CO 2. After 24 hours of culture, transfection was carried out according to the PEI method. During transfection, 500 μL of transfection reagent which contained 5.5 ug of total plasmid was added to each 60 mm culture dish, and the mass ratio of total plasmid to PEI MAX (Polysciences, 24765-1) was 1:4. The transfection was carried out according to the PEI method, wherein the amount of total plasmid was 5.5 μg. The transfection was performed with plasmids 19BF074:18BF019 at a molar ratio of 10:1 to obtain 293T-rtTAadv-CymR cells; and the transfection was performed with plasmids 19BF075:18BF019 at a molar ratio of 10:1 to obtain 293T-rtTA3G-CymR cells. The plasmid and PEI MAX were mixed uniformly, and then put into a culture dish after standing for 15 minutes. 3 hours after transfection, the medium was changed to a complete DMEM medium, and the transfection operation was completed. After 24 hours of transfection, the cells were digested with trypsin and all seeded in a 100 mm culture dish (Corning, 430167), and 200 μg/ml of hygromycin (Sangon Biotech A600230-0001) drug screening was performed for at least three passages. After the growth of cells under the pressure of drug screening was consistent with that of the original 293T cells, the following experiments were performed.
# In Tet-On inducible expression system, the induced transcription activity and the leaky transcription activity were comprehensively affected by the TetO operator linking sequence of the TRE response element and the minimal promoter sequence, as well as different mutants of the transactivator rtTA. In addition, the transport and stability of messenger ribonucleic acid may be enhanced by linking a spliceable intron sequence downstream of the 3′ end of the response element and upstream of the 5′ end of the regulated nucleic acid fragment of interest, but the induced transcription activity and leaky transcription activity of response element of the inducible expression system may also be affected. Based on this, the optimal design scheme of complex response element was determined in this Example based on the induced expression level and the ratio of induced/leaky expression level of Luciferase gene under the combination of the following conditions: (1) Tet-On and Cumate complex response elements TREadvCuO and TRE3GCuO designed based on the TREadv and TRE3G response element sequences; (2) whether an intron was linked; (3) being regulated by the transactivator rtTAadv or rtTA3G. A total of 8 design schemes were compared in this Example: TREadv (18BF232), TREadvCuO (18BF233), TRE3G (18BF234), TRE3GCuO (18BF235), TREadv-BGI (18BF240, wherein the response element was TREadv, and a human β-globulin intron was linked between the 3′ end of the response element and the 5′ end of the Luciferase gene), TREadvCuO-BGI (18BF241, wherein the response element was TREadvCuO, and a human β-globulin intron was linked between the 3′ end of the response element and the 5′ end of the Luciferase gene), TRE3G-BGI (18BF236, wherein the response element was TRE3G, and a human β-globulin intron was linked between the 3′ end of the response element and the 5′ end of the Luciferase gene) and TRE3GCuO-BGI (18BF237, wherein the response element was TRE3GCuO, and a human β-globulin intron was linked between the 3′ end of the response element and the 5′ end of the Luciferase gene). The promoter CMV-BGI (18BF229, wherein the promoter was CMV, and a human β-globulin intron was linked between the 3′ end of the CMV promoter and the 5′ end of the Luciferase gene) was used as a positive control. […]
molecule,measurement,setting,value
"TRE3GCuO: Tet-On (7xTetO of TRE3G) and Cumate complex response element, CuO 50 bp behind the TATA box (SEQ ID NO: 23) (nucleic acid, TRE3GCuO50 response element sequence) DNA: TCCCTATCAGTGATAGAGAACGTATGAAGAGTTTACTCCCTATCAGTGATAGAGAACGTATGCAGACTTTACTCCCTATCAGTGATAGAGAACGTATAAGGAGTTTACTCCCTATCAGTGATAGAGAACGTATGACCAGTTTACTCCCTATCAGTGATAGAGAACGTATCTACAGTTTACTCCCTATCAGTGATAGAGAACGTATATCCAGTTTACTCCCTATCAGTGATAGAGAACGTATTAGGCGTGTACGGTGGGCGCCTATAAAAGCAGAGCTCGTTTAGTGAACCGTCAGATCGCCTGGAGCAATTCCACATACAAACAGACCAGATTGTCTGTTTGTT",increase of induced/leaky expression ratio of TRE3GCuO over TREadvCuO,293T-rtTA3G-CymR cells,37.6%
same,induced expression level as % of the induced expression level of TRE3G,293T-rtTA3G-CymR cells / regulation of rtTA3G,61.8%
same,induced expression level,"293T-rtTA3G-CymR cells, 1 ug/ml DOX and 200 ug/ml Cumate",4.24E+06 RLU
same,induced expression level as % of that of the single regulatory response element,"293T-rtTA3G-CymR cells, DOX and Cumate",61.8%
same,induced/leaky expression ratio,"293T-rtTA3G-CymR cells, DOX and Cumate vs no inducer",2635 times
